Test results taken from paper PMC9409194, “Salt Dependence of DNA Binding Activity of Human Transcription Factor Dlx3”.

Biological target: Dlx3-HD (human, UniProt O60479 129-188)
Assay: NMR (1H/15N-HSQC CSP and imino proton titration); 100 mM NaCl, 35 C; slow exchange; 10 mM sodium phosphate pH 6.0, 100, 250 or 500 mM NaCl, 90% H2O/10% D2O, 35 C
Conditions: protein: recombinant; tags: Ni-NTA purified (His-tag implied); blunt

Chain of Dlx3-HD (O60479 129-188): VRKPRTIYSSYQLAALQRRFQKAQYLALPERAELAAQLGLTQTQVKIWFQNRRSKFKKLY

B1: dlxDNA (dsDNA)
DNA 1: CGTAATTGCC
DNA 2: GGCAATTACG
B1: binds.
